Measurements reported in patent US20220002732A1, “INHIBIN AS TARGETABLE REGULATORS OF ANGIOGENESIS” (UNIVERSITY OF SOUTH CAROLINA, priority 2016, published 2022).

Key:
[1] = test system: TGF-β receptor serine threonine kinases (ALK1-7); experiment: Panel of small molecule ALK inhibitors: inhibin-induced signaling and angiogenesis; type: cell-based; conditions: preliminary screen of ALK inhibitors
Description: The inhibin-α activation of the SMAD1/5 pathway was also examined to determine which receptor type is required. TGF-β receptor serine threonine kinases (ALK1-7) are used by other TGF-β ligands. Testing was done to determine which Type I receptor is utilized by inhibin by using a panel of small molecule inhibitors as a preliminary screen for different ALKs. […] Similarly, three type II receptors are expressed in cells: TBRII, ACTRII and BMPRII.

[2] = test system: HMvEC-1 cells; experiment: Three-dimensional capillary sprouting and tube formation (number of meshes); type: cell-based, human
Protocol: FIG. 25 illustrates three-dimensional capillary sprouting and tube formation of HMvEC-1 cells in the presence of conditioned media (CM) from shControl SKOV3 cancer cells or CM from shINHA SKOV3 cancer cells (top), in the presence of CM from shControl SKOV3 cells in the presence of 10 μg/ml IgG or anti-inhibin-α (middle), and in the presence of CM from shControl treated with (+) or without (−) 300 pM recombinant Inhibin A alone and anti-inhibin-α antibody (10 μg/ml) (bottom). The bar graphs represent the average number of meshes quantified and represent duplicate trials. […] (Bar graphs show mean±SEM, ***P<0.001 and **P<0.01 (n=3), Student's t-test. Scale Bar=500 μm.)
Other TGF-β members have been reported to have effects on angiogenesis. FIG. 26 illustrates side-by-side comparison of angiogenesis results for HMvEC-1 cells treated as indicated with other TGF-β members (activin A, BMP9, TGFβ1) either alone or in the presence of inhibin-α. The robust effect of inhibin on angiogenesis can be seen. The bar graph represents quantitation of number of meshes.
FIG. 27 illustrates the capillary sprouting and tube formation of multiple endothelial cell types (HUVEC, HMvEC, MEEC) upon treatment with 300 pM inhibin-α for 16 hours and the broad effect of inhibin on angiogenesis in different cell types. The graphs represent the number of meshes, branches, and nodes quantified. (Bar graphs show mean±SEM, ***P<0.001 and **P<0.01 (n=3), Student's t-test. Scale Bar=500 μm.)
FIG. 32 illustrates three-dimensional capillary sprouting and tube formation of HMvEC-1 cells in the presence or absence of recombinant inhibin-α (300 pM) either untreated or pretreated with 100 μg/ml TRC105 for 30 minutes prior to inhibin-α treatment (left, scale bar=500 μm). Average number meshes/field was quantified 16 h after treatment and presented in the bar graph (middle). Minimum of 3 fields were counted and data represent duplicate trials. Western blotting for SMAD1/5 phosphorylation is shown (right) in response to 20 pM inhibin-α for up to 60 minutes.
FIG. 34 illustrates capillary sprouting and tube formation (left) in HMvEC-1 cells in response to inhibin-α in the absence and presence of 5 μM of TRC105 added 30 minutes prior to treatment with inhibin-α. The bar graph on the right represents the number of meshes quantified.

[3] = test system: SMAD1/5; experiment: Western blot and staining for SMAD1/5 activation in endothelial cells (HMvEC-1, MEEC); type: cell-based, human, mouse
Protocol: (§1) Mouse Embryonic Endothelial Cells (MEEC) and Human Microvascular Endothelial Cells (HMvEC-1) were examined to determine the effect of inhibin-α on SMAD1/5 activation and on MAPK pathway activation, and specifically, on ERK1/2 activation. GAPDH or B-actin was used as control. Cells were incubated with 20 pM inhibin-α and examined over a time course of 60 minutes and also examined following 30-minute incubation over a dose course from 0 to 100 pM inhibin-α. Western blot results are shown of the HMvEC-1 (FIG. 17) and MEEC (FIG. 18). FIG. 19 presents the Western blot time course results following incubation of MEEC with inhibin-α for ERK1/2 activation. FIG. 20 presents image results from staining (Psmad1/5, DAP, and merged images) for HMvEC-1 cells (left) and MEEC cells (right) following incubation in inhibin-α or untreated (UT).
To determine if inhibin secreted by ovarian cancer cells activates the SMAD1/5 pathway in endothelial cells, conditioned media were obtained from stable cell lines that were generated from SKOV3 cells and OVCA420 cells with short hairpin RNA either as a control (with no effective sequence) (shControl), or directed at inhibin-α (shINHA), or stable unmodified SKOV3 cells. HMvEC-1 cells were then incubated in one of the conditioned media, as schematically illustrated in FIG. 22.

[4] = test system: ERK1/2; experiment: Western blot for MAPK pathway ERK1/2 activation in endothelial cells (MEEC); type: cell-based, mouse; conditions: time course
Protocol: as §1

[5] = test system: SMAD2/3; experiment: Western blot for SMAD2/3 activation in endothelial cells (HMvEC-1, MEEC); type: cell-based, human, mouse

NC(=O)c1ccc(-c2nc(-c3ccc4c(c3)OCO4)c(-c3ccccn3)[nH]2)cc1 [SB431542]
suppression of inhibin-induced signaling and angiogenesis [1]: not ALK3/6 or ALK5/4/7 (SB431542), suppressed

B1: TRCN105: humanized antibody to endoglin in clinical trials (antibody, chains of the INN, looked up, V domains shown)
VH: EVKLEESGGGLVQPGGSMKLSCAASGFTFSDAWMDWVRQSPEKGLEWVAEIRSKASNHATYYAESVKGRFTISRDDSKSSVYLQMNSLRAEDTGIYYCTRWRRFFDSWGQGTTLTVSS
VL: QIVLSQSPAILSASPGEKVTMTCRASSSVSYMHWYQQKPGSSPKPWIYATSNLASGVPVRFSGSGSGTSYSLTISRVEAEDAATYYCQQWSSNPLTFGAGTKLELK
inhibin-α-induced angiogenesis on loss or block of endoglin or ALK1 ([2]; endothelial cells with or without recombinant inhibin-α): inhibin does not induce angiogenesis

B2: recombinant Inhibin: recombinant Inhibin A, αβA heterodimer, used at 300 pM (protein, UniProt P05111 233-366; P08476 311-426, looked up)
Inhibin alpha chain: STPLMSWPWSPSALRLLQRPPEEPAAHANCHRVALNISFQELGWERWIVYPPSFIFHYCHGGCGLHIPPNLSLPVPGAPPTPAQPYSLLPGAQPCCAALPGTMRPLHVRTTSDGGYSFKYETVPNLLTQHCACI
Inhibin beta A chain: GLECDGKVNICCKKQFFVSFKDIGWNDWIIAPSGYHANYCEGECPSHIAGTSGSSLSFHSTVINHYRMRGHSPFANLKSCCVPTKLRPMSMLYYDDGQNIIKKDIQNMIVEECGCS
endothelial cell angiogenesis induced by tumor cell-produced inhibin (number of meshes) ([2]; HMvEC-1, CM from shControl SKOV3, antibody 10 μg/ml, recombinant Inhibin A 300 pM): can be recapitulated

B3: inhibin-α: α-subunit of inhibin, critical for the functionality of dimeric inhibin (both A and B) (protein, UniProt P05111 233-366, looked up)
Inhibin alpha chain: B2 Inhibin alpha chain
SMAD1/5 pathway activation by cancer cell conditioned media ([3]; HMvEC-1 cells in conditioned media of shControl or shINHA SKOV3/OVCA420 cells): activates the SMAD1/5 pathway in endothelial cells in a paracrine manner
SMAD1/5 activation ([3]; endothelial cells, 20 pM over 60 minutes, 0 to 100 pM for 30 minutes): robust activator
ERK1/2 activation [4]: robust activator
SMAD2/3 activation [5]: not equally an activator
angiogenesis (number of meshes), side-by-side with other TGF-β members ([2]; HMvEC-1, compared with activin A, BMP9, TGFβ1): robust effect
capillary sprouting and tube formation in multiple endothelial cell types ([2]; HUVEC, HMvEC, MEEC, 300 pM, 16 hours): broad effect
